Assay results taken from US8574882B2, “Thermostable 1,5-anhydroglucitol dehydrogenase, and method for measurement of 1,5-anhydroglucitol by using the same” (Nippon Kayaku Kabushiki Kaisha, priority 2008, dated 2013).

How the values were obtained:
[1] = 1,5-AG dehydrogenase activity determination of crude enzyme solution (L-sorbose, DCIP, 1-m-PMS, decrease in absorbance at 600 nm); format: biochemical; settings: crude enzyme solution, L-sorbose as substrate, 37° C.
Experimental: The E. coli JM109 strains transformed with the pTrc-PS15DH vectors confirmed in the paragraph (I) to have the insert fragment were inoculated to 3 mL of an LB medium containing 100 μg/mL ampicillin and cultured at 28° C. for 14 hours. Of this culture solution, a 0.2 mL aliquot was inoculated to 10 mL of an LB medium (containing 100 μg/mL ampicillin). Approximately 3 hours later, the rise of OD600 of the culture solution to 0.4 to 0.7 was confirmed, and 1,5-AG dehydrogenase expression in E. coli was then induced by the addition of 0.1 M IPTG (final concentration: 0.1 mM) to the medium. This culture solution was further cultured overnight at 28° C. and centrifuged at 10000×g for 5 minutes to precipitate cells. The supernatant was removed, and the pellet was then washed twice with a 0.85% aqueous NaCl solution. Cells were precipitated by centrifugation. Then, the microbial cells were suspended in 1 mL of a 50 mM sodium phosphate buffer, pH 7.5. Triton X-100 was added thereto at a concentration of 0.25%, and the microbial cells were disrupted using a bead impact-type cell disrupter MINI-BEAD BEATER (30 seconds×4, manufactured by Central Scientific Commerce, Inc.) while cooled in ice. After centrifugation at 20000×g for 10 minutes, the supernatant was examined as a crude enzyme solution for its 1,5-AG dehydrogenase activity. The composition of the reaction solution is as described below. Since the 1,5-AG dehydrogenase also reacts with L-sorbose as its substrate, L-sorbose was used for convenience instead of 1,5-AG in the enzymatic activity determination.
Composition of Reaction Solution:
The components other than the crude enzyme solution are mixed and kept at 37° C. for 10 minutes. Then, the crude enzyme solution is added to the reaction solution to initiate reaction. Decrease in absorbance at 600 nm for 1 minute with the temperature kept at 37° C. is determined.
The enzymatic activity can be determined according to the following equation: Enzymatic activity (U/mL)=(Δ600/min×0.6 (mL)×dilution ratio of crude enzyme solution)/(16.3×0.01 (mL)).
(§1) The E. coli JM109 containing the gene encoding each thermostable 1,5-AG dehydrogenase obtained in the paragraphs to [4] of EXAMPLE 2 was transplanted to 10 mL of an LB liquid medium containing 50 μg/mL ampicillin and 0.1 mM IPTG and shake-cultured at 30° C. for 16 hours. 10 mL of the shake-culture solution was centrifuged at 10000 rpm for 5 minutes. The culture supernatant was removed, and the pellet was then washed twice with a 0.85% aqueous NaCl solution. These microbial cells were suspended in 1 mL of a 50 mM sodium phosphate buffer (pH 7.5) containing 0.25% Triton X-100. The microbial cells were disrupted using a bead impact-type cell disrupter MINI-BEAD BEATER (30 seconds×4, manufactured by Central Scientific Commerce, Inc.) while cooled in ice. After centrifugation at 15000 rpm for 10 minutes, the supernatant was used as a crude enzyme solution. When the crude enzyme solution was heat-treated, the treatment was performed for 10 minutes in a water bath of 45° C., 50° C., 55° C. or 60° C.
(§2) The enzymatic activity of the 1,5-AG dehydrogenase was calculated by measurement by the same approach as that described in the paragraph (J) of EXAMPLE 1.
(§3) A specific activity that represents the enzymatic activity of the 1,5-AG dehydrogenase per mg of the crude enzyme solution was calculated according to the following equation: Specific activity (U/mg)=enzymatic activity (U/mL)/protein concentration of crude enzyme solution (mg/mL). Moreover, the rate of residual activity was calculated according to the following equation: Rate of residual activity (%)=(specific activity of crude enzyme solution after heat treatment/specific activity of crude enzyme solution before heat treatment)×100.
The 1,5-AG dehydrogenase activity was determined based on the method described in EXAMPLE 1, and its specific activity was determined according to the equation described in EXAMPLE 3.

[2] = Primary screening of variant gene library after heat treatment of microbial cells (DCIP decolorization with 1,5-AG); format: biochemical; settings: microbial cells treated at 60° C. for 20 minutes; blue color of DCIP decolorized
Experimental: Approximately 10100 colonies of the variant gene library were randomly picked up using a colony picker (PM-2s, manufactured by Microtec Co., Ltd.) and subjected to primary screening In the primary screening, a 1.2-mL 96-well square deep well plate (manufactured by NALGE NUNC INTERNATIONAL MK.) was used. The colonies were transplanted to 500 μL of an LB liquid medium containing 50 μg/mL ampicillin and cultured (28° C., 900 rpm) overnight in a 96-well square plate shaker (TITRAMAX 100, manufactured by HEIDOLPH). The 96-well square deep well plate was centrifuged at 2000 rpm for 10 minutes to separate microbial cells, which were then treated at −80° C. for 1 hour. The microbial cells were thawed and then treated at 60° C. for 20 minutes. Active variant enzymes were picked up by suspending the microbial cells thus treated at 60° C. by the addition of 200 μL of a 0.1 M potassium phosphate buffer (pH 7.0) containing 0.5% Triton X-100, 30 μL of 6 mM 2,6-dichlorophenolindophenol (DCIP) and 5 μL of 50 mg/mL 1,5-AG. The blue color of DCIP is decolorized for colonies having the enzymatic activity. As a result, it was observed that the blue color of DCIP was decolorized for colonies carrying a 1,5-AG dehydrogenase Ver. […] 0.

[3] = Stability of thermostable 1,5-AG dehydrogenase at heat treatment temperature (rate of residual activity); format: physicochemical; settings: crude enzyme solution, water bath 45° C., 10 minutes
Experimental: as §1, §2, §3

B1: Ver. 1.0: thermostable 1,5-AG dehydrogenase, protein 21) of b101; net vs SEQ ID NO: 4: P50Q (protein)
chain: MEFGGQPDIVIIGSGIGGASIAAGLSASGADILILEAGESLPDRPENRDQHAIFQRGFFRPKEFWYETDGTPFNPGNYYNVGGNSKFYGAVLVRYRREDFEELAHLEGVSPAWPFAYDELEPWYCKAEELFQVRGELGDDPTEPYHSKPYSYPAIRDESPIADLRARLKKAGLHPASLPLGVDIERWLAKAKTPWDAHPNSNDGKMDAETCPLALALKHPNVGLETSARVTKLETGPDGKTIVAVHYVKNGEALVLRPKLVILSAGAVQSAALLLRSGLANRSDQVGRNFMNHNASAVIGFDPRYRNDSVYQKTFGFNDYYLSDGAGGPPLGNVQLLGRVSGAILKSNMRQVPEWFLNRIAGHTIDFYAMSEDLPSPESRVSVDGDRIILHWVRSNWKAHLMLVDKLKSALRAAGFPVVLSRAFDRRTPSHQCGTVRIGDNPATAPLDPYCRAYDHPNLYVVDASFLPTSAAVNPALTIAAQALRVADHLNREVLA
modifications: Pseudomonas sp. NK-85001
Specific activity [1]: 1.7 U/mg
Thermostability compared with 1,5-AG dehydrogenase Ver. 0 [2]: improved thermostability
Rate of residual activity after 10-minute treatment at 45° C. [3]: 8.3%
